Measurements: patent US20250152742A1, “COMPOSITIONS AND METHODS FOR NEUROLOGICAL DISEASES” (Trames Bio, Inc., priority 2022, published 2025)

System: engineered chimeric receptor SEQ ID NO: 33 and its mutants (human α7-nAChR ligand binding domain / human GlyRα1 ion pore domain) in Lenti-X 293T cells
Assay: YFP fluorescence quenching anion reporter plate reader assay (percent quench, EC50)
Assay type: cell-based
Conditions: for YFP fluorescence quenching using CNL001 (percent quench): receptor named in row; for YFP fluorescence quenching using Varenicline, 3 nM var: ligand Varenicline 3 nM; for YFP fluorescence quenching using Varenicline, 30 nM var: ligand Varenicline 30 nM; for YFP fluorescence quenching using Varenicline, 300 nM var: ligand Varenicline 300 nM; for YFP fluorescence quenching using Varenicline, 500 nM var: ligand Varenicline 500 nM; for YFP fluorescence quenching using Varenicline, 1 uM var: ligand Varenicline 1 uM
Excerpt: To screen these mutant LGICs for those having novel response profiles to ligands, an anion reporter assay was developed to assess the function of the LGICs in a high throughput format. In this assay, cells expressing a YFP reporter whose fluorescence is quenched in the presence of anion are transfected with DNA encoding the channel of interest. Upon exposure to ligand, channels that are activated will flux anion, resulting in a dose-dependent quench of the YFP that can be detected on a plate reader. The greater the quench signal (i.e., the more positive the value), the higher the ligand activity on the receptor is.
Lenti-X 293T cells (LX293T, Clontech) were maintained in DMEM containing 10% FBS and 1% penicillin/streptomycin (Invitrogen). […] Two days before assay, cells were split at a density of 20,000 cells/well in a 96-well tissue culture plate coated with poly-d lysine (Thermo Scientific). The next day, the cells were transiently transfected with 0.1 μg of DNA per well using standard Fugene protocol (Promega). On the day of assay, cells were washed 2 times in 1X extracellular solution (1X ECS: 140 mM NaCl, 5 mM KCl, 1 mM MgCl2, 2 mM CaCl2, 10 mM HEPES, 10 mM glucose, pH 7.2, mOsms 300). After the last wash, 100 μL of 1X ECS was added to the wells and the plate was incubated at 37° C. for 30 min. While incubating the plate, the drugs were diluted to a 2X concentration in 1X ECS-Nal (same components as 1X ECS except the 140 mM NaCl was replaced by 140 mM Nal). The plates were then read on a Flexstation3 (Molecular Devices). Each well, 8 wells at a time, of the plate is read for 2 min using a Flexstation3 (Molecular Devices) as follows: 1) a baseline YFP fluorescence is read for 17 sec, 2) 100 μL of ligand is added, and 3) the changes in YFP fluorescence are then measured every 1.3 sec for 1 minute and 43 seconds. The percent quench is calculated from the average fluorescence of the last 10 seconds of the read divided by the baseline average of the first 15 seconds prior to the ligand addition.
FIGS. 1A-1J provide heat maps of the percent quench of YFP fluorescence following stimulation by various doses of either acetylcholine or the non-native ligand as indicated in the Figures. CODA71 (SEQ ID NO: 33) was used as a control, and CODA75 (SEQ ID NO: 29, a non-responding chimeric engineered receptor) was used as the negative control. Quenching of the fluorescence signal, as indicated by blue shaded cells, indicate the level of engineered receptor activation by the non-native ligand at that concentration.

B1: CODA333: engineered receptor: L131S in SEQ ID NO: 33 (protein)
chain: MRCSPGGVWLALAASLLHVSLQGEFQRKLYKELVKNYNPLERPVANDSQPLTVYFSLSLLQIMDVDEKNQVLTTNIWLQMSWTDHYLQWNVSEYPGVKTVRFPDGQIWKPDILLYNSADERFDATFHTNVSVNSSGHCQYLPPGIFKSSCPMDLKNFPMDVQTCKLKFGSWSYGGWSLDLQMQEADISGYIPNGEWDLVGIPGKRSERFYECCKEPYPDVTFTVTMRRRMGYYLIQMYIPSLLIVILSWISFWINMDAAPARVGLGITTVLTMTTQSSGSRASLPKVSYVKAIDIWMAVCLLFVFSALLEYAAVNFVSRQHKELLRFRRKRRHHKSPMLNLFQEDEAGEGRFNFSAYGMGPACLQAKDGISVKGANNSNTTNPPPAPSKSPEEMRKLFIQRAKKIDKISRIGFPMAFLIFNMFYWIIYKIVRREDVHNQ
modifications: synthetic sequence of chimeric LGIC
- YFP fluorescence quenching using CNL001 (percent quench) (1 nM CNL001, first column so headed): 76.165%
- YFP fluorescence quenching using CNL001 (percent quench) (1 nM CNL001, second column so headed): 78.463%
- YFP fluorescence quenching using TC-5619/Bradanicline (percent quench) (1 nM brd (TC-5619/Bradanicline)): −0.85%
- YFP fluorescence quenching using TC-5619/Bradanicline (percent quench) (3 nM brd (TC-5619/Bradanicline)): −2.05%
- YFP fluorescence quenching using CNL001 (percent quench) (10 nM CNL001, first column so headed): 79.349%
- YFP fluorescence quenching using CNL001 (percent quench) (10 nM CNL001, second column so headed): 78.238%
- YFP fluorescence quenching using TC-5619/Bradanicline (percent quench) (10 nM brd (TC-5619/Bradanicline)): −2.8%
- YFP fluorescence quenching using TC-6683 (percent quench) (30 nM TC-6683): −23.88%
- YFP fluorescence quenching using TC-5619/Bradanicline (percent quench) (30 nM brd (TC-5619/Bradanicline)): −2.07%
- YFP fluorescence quenching using CNL001 (percent quench) (50 nM CNL001, first column so headed): 80.221%
- YFP fluorescence quenching using CNL001 (percent quench) (50 nM CNL001, second column so headed): 81.789%
- YFP fluorescence quenching using ABT-126 (percent quench) (50 nM abt (ABT-126)): −20.99%
- YFP fluorescence quenching using CNL001 (percent quench) (100 nM CNL001, first column so headed): 81.855%
- YFP fluorescence quenching using CNL001 (percent quench) (100 nM CNL001, second column so headed): 80.766%
- YFP fluorescence quenching (percent quench) (100 nM CNL002): −15.44%
- YFP fluorescence quenching using ABT-126 (percent quench) (100 nM abt (ABT-126)): −16.21%
- YFP fluorescence quenching using AZD-0328 (percent quench) (100 nM azd0328): 38.49%
- YFP fluorescence quenching using TC-5619/Bradanicline (percent quench) (100 nM brd (TC-5619/Bradanicline)): 30.34%
- YFP fluorescence quenching using TC-6683 (percent quench) (300 nM TC-6683): −21.46%
- YFP fluorescence quenching using ABT-126 (percent quench) (300 nM abt (ABT-126)): −13.34%
- YFP fluorescence quenching using AZD-0328 (percent quench) (300 nM azd0328): 67.13%
- YFP fluorescence quenching using TC-5619/Bradanicline (percent quench) (300 nM brd (TC-5619/Bradanicline)): 50.56%
- YFP fluorescence quenching using CNL001 (percent quench) (1 uM CNL001, first column so headed): 81.707%
- YFP fluorescence quenching using CNL001 (percent quench) (1 uM CNL001, second column so headed): 82.665%
- YFP fluorescence quenching (percent quench) (1 uM CNL002): 15.21%
- YFP fluorescence quenching using ABT-126 (percent quench) (1 uM abt (ABT-126)): 4.96%
- YFP fluorescence quenching using TC-5619/Bradanicline (percent quench) (1 uM brd (TC-5619/Bradanicline)): 72.42%
- YFP fluorescence quenching using TC-6683 (percent quench) (3 uM TC-6683): −21.07%
- YFP fluorescence quenching (percent quench) (10 uM ach (acetylcholine)): −10.11%
- YFP fluorescence quenching using TC-6683 (percent quench) (30 uM TC-6683): −16.15%
- YFP fluorescence quenching using AZD-0328 (percent quench) (30 uM azd0328): 80.61%
- YFP fluorescence quenching using TC-6683 (percent quench) (100 uM TC-6683): −18.96%
- YFP fluorescence quenching (percent quench) (100 uM ach (acetylcholine)): −10.05%
- YFP fluorescence quenching (percent quench) (1 mM ach (acetylcholine)): 32.11%
- YFP fluorescence quenching (percent quench) (3 mM ach (acetylcholine)): 57.37%
- YFP fluorescence quenching using Facinicline, 30 nM fac (ligand Facinicline 30 nM): 6.27
- YFP fluorescence quenching using Facinicline, 300 nM fac (ligand Facinicline 300 nM): 69.8
- YFP fluorescence quenching using Facinicline, 10 uM fac (ligand Facinicline 10 uM): 80.07
- YFP fluorescence quenching using Facinicline, 30 uM fac (ligand Facinicline 30 uM): 81.35
- YFP fluorescence quenching using TC-6987, 1 uM tc6987 (ligand TC-6987 1 uM): −3.87
- YFP fluorescence quenching using TC-6987, 3 uM tc6987 (ligand TC-6987 3 uM): −20.2
- YFP fluorescence quenching using TC-6987, 5 uM tc6987 (ligand TC-6987 5 uM): −15.25
- YFP fluorescence quenching using TC-6987, 10 uM tc6987 (ligand TC-6987 10 uM): 4.92
- YFP fluorescence quenching using TC-6987, 30 uM tc6987 (ligand TC-6987 30 uM): 14.75
- YFP fluorescence quenching using TC-6987, 50 uM tc6987 (ligand TC-6987 50 uM): 21.33
- YFP fluorescence quenching using TC-6987, 100 uM tc6987 (ligand TC-6987 100 uM): 29.7
- YFP fluorescence quenching using TC-6987, 300 uM tc6987 (ligand TC-6987 300 uM): 20.79
- YFP fluorescence quenching using TC-6987, 500 uM tc6987 (ligand TC-6987 500 uM): 44.37
- YFP fluorescence quenching using Varenicline, 3 nM var (first column): −4.782
- YFP fluorescence quenching using Varenicline, 3 nM var (second column): 1.048
- YFP fluorescence quenching using Varenicline, 30 nM var (first column): 2.084
- YFP fluorescence quenching using Varenicline, 30 nM var (second column): 5.022
- YFP fluorescence quenching using Varenicline, 300 nM var (first column): 12.162
- YFP fluorescence quenching using Varenicline, 300 nM var (second column): 12.979
- YFP fluorescence quenching using Varenicline, 500 nM var (first column): 29.238
- YFP fluorescence quenching using Varenicline, 500 nM var (second column): 25.614
- YFP fluorescence quenching using Varenicline, 1 uM var (first column): 43.863
- YFP fluorescence quenching using Varenicline, 1 uM var (second column): 39.346
